Experimental data reported in US20090075304A1 (published 2009).

Target: T1, activated soluble HLA-A*0201
T1 construct: MHC class I molecule that receives peptide in the fluorescence polarization assay (PolyTest); also called sHLA
Assay: fluorescence polarization competition (PolyTest)

Binding result, binds:
GVLPALPQV (also called GVL(47)) [GVLPALPQV, human chorionic gonadotropin-beta peptide 47-55]
TMTRVLQGV (also called TMT(40)) [TMTRVLQGV, human chorionic gonadotropin-beta peptide 40-48]
VLQGVLPAL (also called VLQ(44)) [VLQGVLPAL, human chorionic gonadotropin-beta peptide 44-52]
